Results from the Human Domainome abundance scans (Beltran et al. 2025).
± gives the uncertainty stated by the source.

B1: KAT8 regulatory NSL complex subunit 2, residues 28 to 91; numbered along this chain, Q9H9L4 (parent)
chain: CAFTHRPCSHPRLEGQEFCIKHILEDKNAPFKQCSYISTKNGKRCPNAAPKPEKKDGVSFCAEH

Variants of: B1
Experiment: abundance fitness (aPCA) (normalised: wild type 0, dead -1); higher = more abundant; growth selection in yeast, the domain comes from the species named
Conditions: Homo sapiens

| Variant | abundance fitness |
| --- | --- |
| CAFTHRPCSHPRLEGQEFCIKHILEDKNAPFKQCSYISTKNGKRCPEAAPKPEKKDGVSFCAEH | -0.049 ± 0.06 |
| CAFTHRPCSHPRLEGQEFCIKHILEDKNAPFKQCSYISTKNGKRCPTAAPKPEKKDGVSFCAEH | -0.057 ± 0.083 |
| CAFTHRPCSHPRLEGQEFCIKHILEDKNAPFKQCSYISTKNGKRCPAAAPKPEKKDGVSFCAEH | -0.002 ± 0.059 |
| CAFTHRPCSHPRLEGQEFCIKHILEDKNAPFKQCSYISTKNGKRCPMAAPKPEKKDGVSFCAEH | -0.074 ± 0.06 |
| CAFTHRPCSHPRLEGQEFCIKHILEDKNAPFKQCSYISTKNGKRCPFAAPKPEKKDGVSFCAEH | 0.006 ± 0.086 |
| CAFTHRPCSHPRLEGQEFCIKHILEDKNAPFKQCSYISTKNGKRCPKAAPKPEKKDGVSFCAEH | -0.076 ± 0.067 |
| CAFTHRPCSHPRLEGQEFCIKHILEDKNAPFKQCSYISTKNGKRCPCAAPKPEKKDGVSFCAEH | -0.029 ± 0.089 |
| CAFTHRPCSHPRLEGQEFCIKHILEDKNAPFKQCSYISTKNGKRCPIAAPKPEKKDGVSFCAEH | -0.107 ± 0.078 |
| CAFTHRPCSHPRLEGQEFCIKHILEDKNAPFKQCSYISTKNGKRCPDAAPKPEKKDGVSFCAEH | 0.017 ± 0.066 |
| CAFTHRPCSHPRLEGQEFCIKHILEDKNAPFKQCSYISTKNGKRCPRAAPKPEKKDGVSFCAEH | -0.062 ± 0.065 |
| CAFTHRPCSHPRLEGQEFCIKHILEDKNAPFKQCSYISTKNGKRCPYAAPKPEKKDGVSFCAEH | -0.132 ± 0.083 |
| CAFTHRPCSHPRLEGQEFCIKHILEDKNAPFKQCSYISTKNGKRCPVAAPKPEKKDGVSFCAEH | -0.063 ± 0.047 |
| CAFTHRPCSHPRLEGQEFCIKHILEDKNAPFKQCSYISTKNGKRCPLAAPKPEKKDGVSFCAEH | -0.053 ± 0.047 |
| CAFTHRPCSHPRLEGQEFCIKHILEDKNAPFKQCSYISTKNGKRCPHAAPKPEKKDGVSFCAEH | -0.118 ± 0.079 |
| CAFTHRPCSHPRLEGQEFCIKHILEDKNAPFKQCSYISTKNGKRCPPAAPKPEKKDGVSFCAEH | -0.511 ± 0.073 |
| CAFTHRPCSHPRLEGQEFCIKHILEDKNAPFKQCSYISTKNGKRCPSAAPKPEKKDGVSFCAEH | -0.035 ± 0.064 |
| CAFTHRPCSHPRLEGQEFCIKHILEDKNAPFKQCSYISTKNGKRCPWAAPKPEKKDGVSFCAEH | -0.079 ± 0.061 |
| CAFTHRPCSHPRLEGQEFCIKHILEDKNAPFKQCSYISTKNGKRCPGAAPKPEKKDGVSFCAEH | -0.076 ± 0.073 |
| CAFTHRPCSHPRLEGQEFCIKHILEDKNAPFKQCSYISTKNGKRCPQAAPKPEKKDGVSFCAEH | 0.061 ± 0.079 |
| CAFTHRPCSHPRLEGQEFCIKHILEDKNAPFKQCSYISTKNGKRCPNAIPKPEKKDGVSFCAEH | -0.076 ± 0.091 |
| CAFTHRPCSHPRLEGQEFCIKHILEDKNAPFKQCSYISTKNGKRCPNAYPKPEKKDGVSFCAEH | -0.261 ± 0.12 |

| Variant | abundance fitness |
| --- | --- |
| CAFTHRPCSHPRLEGQEFCIKHILEDKNAPFKQCSYISTKNGKRCPNATPKPEKKDGVSFCAEH | -0.005 ± 0.087 |
| CAFTHRPCSHPRLEGQEFCIKHILEDKNAPFKQCSYISTKNGKRCPNANPKPEKKDGVSFCAEH | -0.143 ± 0.17 |
| CAFTHRPCSHPRLEGQEFCIKHILEDKNAPFKQCSYISTKNGKRCPNAVPKPEKKDGVSFCAEH | 0.076 ± 0.078 |
| CAFTHRPCSHPRLEGQEFCIKHILEDKNAPFKQCSYISTKNGKRCPNALPKPEKKDGVSFCAEH | -0.094 ± 0.044 |
| CAFTHRPCSHPRLEGQEFCIKHILEDKNAPFKQCSYISTKNGKRCPNARPKPEKKDGVSFCAEH | -0.332 ± 0.053 |
| CAFTHRPCSHPRLEGQEFCIKHILEDKNAPFKQCSYISTKNGKRCPNAQPKPEKKDGVSFCAEH | -0.3 ± 0.066 |
| CAFTHRPCSHPRLEGQEFCIKHILEDKNAPFKQCSYISTKNGKRCPNAHPKPEKKDGVSFCAEH | -0.147 ± 0.11 |
| CAFTHRPCSHPRLEGQEFCIKHILEDKNAPFKQCSYISTKNGKRCPNAWPKPEKKDGVSFCAEH | -0.315 ± 0.067 |
| CAFTHRPCSHPRLEGQEFCIKHILEDKNAPFKQCSYISTKNGKRCPNADPKPEKKDGVSFCAEH | -0.339 ± 0.13 |
| CAFTHRPCSHPRLEGQEFCIKHILEDKNAPFKQCSYISTKNGKRCPNAKPKPEKKDGVSFCAEH | -0.321 ± 0.077 |
| CAFTHRPCSHPRLEGQEFCIKHILEDKNAPFKQCSYISTKNGKRCPNACPKPEKKDGVSFCAEH | -0.148 ± 0.091 |
| CAFTHRPCSHPRLEGQEFCIKHILEDKNAPFKQCSYISTKNGKRCPNAFPKPEKKDGVSFCAEH | -0.124 ± 0.071 |
| CAFTHRPCSHPRLEGQEFCIKHILEDKNAPFKQCSYISTKNGKRCPNAPPKPEKKDGVSFCAEH | -0.219 ± 0.078 |
| CAFTHRPCSHPRLEGQEFCIKHILEDKNAPFKQCSYISTKNGKRCPNAEPKPEKKDGVSFCAEH | -0.212 ± 0.17 |
| CAFTHRPCSHPRLEGQEFCIKHILEDKNAPFKQCSYISTKNGKRCPNAGPKPEKKDGVSFCAEH | -0.06 ± 0.057 |
| CAFTHRPCSHPRLEGQEFCIKHILEDKNAPFKQCSYISTKNGKRCPNIAPKPEKKDGVSFCAEH | -0.204 ± 0.065 |
| CAFTHRPCSHPRLEGQEFCIKHILEDKNAPFKQCSYISTKNGKRCPNHAPKPEKKDGVSFCAEH | -0.336 ± 0.19 |
| CAFTHRPCSHPRLEGQEFCIKHILEDKNAPFKQCSYISTKNGKRCPNSAPKPEKKDGVSFCAEH | -0.168 ± 0.051 |
| CAFTHRPCSHPRLEGQEFCIKHILEDKNAPFKQCSYISTKNGKRCPNVAPKPEKKDGVSFCAEH | -0.178 ± 0.056 |
| CAFTHRPCSHPRLEGQEFCIKHILEDKNAPFKQCSYISTKNGKRCPNFAPKPEKKDGVSFCAEH | -0.204 ± 0.075 |
| CAFTHRPCSHPRLEGQEFCIKHILEDKNAPFKQCSYISTKNGKRCPNNAPKPEKKDGVSFCAEH | -0.293 ± 0.098 |
